Assays:
[1] = molecular target: T1, HER2 (human epidermal growth factor receptor 2) on cells (human, UniProt P04626 23-1255); assay: flow cytometry (Cy5), SKOV-3 cells, 3.33 nM, 37 C, 24 h
T1 construct: whole, on cells; One molecule for HER2 on all HER2-positive human cell lines; also called ERBB2; HER2 WT

[2] = molecular target: T1, HER2 (human epidermal growth factor …); assay: flow cytometry (Cy5), MDA-MB-231/HER2 cells, 3.33 nM, 37 C, 24 h
[3] = molecular target: T1, HER2 (human epidermal growth factor …); assay: flow cytometry (Cy5), MDA-MB-231/HER2 cells, 0.5 h

B1: Nanobody-PEG2-TCO-MePhTz-PEG4-PEG24-CO[N(PN)2][Lys]8[(α-NH-Cy5)1(α-NH-Glu-VC-PAB-MMAE)7(ε-NH-COPEG1100)8], Compound 41 (VHH)
VHH: EVQLVESGGSLVQPGGSLRLSCAASGFTFDDYAMSWVRQVPGKGLEWVSSINWSGTHTDYADSVKGRFTISRNNANNTLYLQMNSLKSEDTAVYYCAKNWRDAGTTWFEKSGSAGQGTQVTVSS
modifications: C-terminal unnatural amino acid (# in the printed sequence; p-azido-phenylalanine) clicked to DBCO-PEG12-TCO and through it to the tetrazine G3 lysine dendrimer carrying Cy5, Glu-VC-PAB-MMAE and PEG1100
notes: Anti-HER2 nanobody 2D3 conjugated to a G3 dendrimer; also called compound 41 (targeted); targeted dendrimer
fold fluorescence against compound 36 (untargeted control) [1]: ~16 fold | fold fluorescence against compound 36 (untargeted control) [2]: ~9 fold

B2: BHA[Lys]16[((α-NH-COPEG24NH-COPEG4(PhMeTz) TCO-PEG3NH-COPEG24NH-Glu-DBCO/N3-Nanobody)1(α-Lys(α-NHCy5)(ε-NHDFO))1(α-NH2)14(ε-NH-COPEG1000)16], G4, Compound 90 (VHH)
VHH: B1 VHH
modifications: unnatural amino acid (#; p-azido-phenylalanine) clicked to DBCO-Glu-NHPEG24CO-NHPEG3-TCO and through it to the tetrazine G4 BHA-lysine dendrimer carrying Cy5, DFO and PEG1000
notes: Single-nanobody G4 conjugate; also called single 2D3-dendrimer conjugate; MFI Single
cellular association value (legend says percent; value exceeds 100, unit unclear) [3]: 157

B3: BHA[Lys]8[((α-NH-COPEG24NH-COPEG4(PhMeTz) TCO-PEG3NH-COPEG24NH-Glu-DBCO/N3-Nanobody)1(α-Lys(α-NHCy5)(ε-NHDFO))1(α-NH2)6)(ε-NH-COPEG1000)8], G3, Compound 89 (VHH)
VHH: B1 VHH
modifications: unnatural amino acid (#; p-azido-phenylalanine) clicked to DBCO-Glu-NHPEG24CO-NHPEG3-TCO and through it to the tetrazine G3 BHA-lysine dendrimer carrying Cy5, DFO and PEG1000
notes: Single-nanobody G3 conjugate; also called BHA-G3-PEG1000 + NB
cellular association value (legend says percent; value exceeds 100, unit unclear) [3]: 218

B4: BHA[Lys]32[((α-NH-COPEG24NH-COPEG4(PhMeTz) TCO-PEG3NH-COPEG24NH-Glu-DBCO/N3-Nanobody)1-4(α-NHCy5)1(α-NH-COPEG9-Val-Ala-PAB-P-Trigger-NMeCO-CTX)22) (α-NH2)5-8 … (VHH)
VHH: B1 VHH
modifications: unnatural amino acid (# in the printed sequence; p-azido-phenylalanine) after the last nanobody residue clicked to DBCO-Glu-NHPEG24CO-NHPEG3-TCO and through it to the tetrazine G5 BHA-lysine dendrimer carrying Cy5, cabazitaxel and PEG1100
notes: 1-4 nanobodies per dendrimer as printed; also called compound 78 (targeted); 78 (2D3, G5, PEG1000, CTX)
fold fluorescence against compound 70 (untargeted control) [1]: ~160 fold | fold fluorescence against compound 70 (untargeted control) [2]: ~340 fold

B5: BHA[Lys]32[((α-NH-COPEG24NH-COPEG4(PhMeTz) TCO-PEG3NH-COPEG24NH-Glu-DBCO/N3-Nanobody)1(α-Lys(α-NHCy5)(ε-NHDFO))1(α-NH2)30(ε-NH-COPEG1100)32], G5, Compound 92 (VHH)
VHH: B1 VHH
modifications: unnatural amino acid (#; p-azido-phenylalanine) clicked to DBCO-Glu-NHPEG24CO-NHPEG3-TCO and through it to the tetrazine G5 BHA-lysine dendrimer carrying Cy5, DFO and PEG
notes: Single-nanobody G5 conjugate; also called BHA-G5-PEG1000 + NB
cellular association value (legend says percent; value exceeds 100, unit unclear) [3]: 165

B6: BHA[Lys]4[((α-NH-COPEG24NH-COPEG4(PhMeTz) TCO-PEG3NH-COPEG24NH-Glu-DBCO N3-Nanobody)1(α-Lys(α-NHCy5)(ε-NHDFO))1(α-NH2)2)(ε-NH-COPEG1000)4, G2, Compound 86 (VHH)
VHH: B1 VHH
modifications: unnatural amino acid (#; p-azido-phenylalanine) clicked to DBCO-Glu-NHPEG24CO-NHPEG3-TCO and through it to the tetrazine G2 BHA-lysine dendrimer carrying Cy5, DFO and PEG1000
notes: Single-nanobody G2 conjugate; also called BHA-G2-PEG1000 + NB
cellular association value (legend says percent; value exceeds 100, unit unclear) [3]: 190
